In article doi:10.1101/2023.10.18.562911:

Key:
[1] = target: full-length GST-yKu70 (S. cerevisiae) (UniProt P32807); assay: MST
[2] = target: full-length GST-Rfa1 (S. cerevisiae) (UniProt P22336); assay: MST
Sequence of UniProt P22336 (P22336 whole entry): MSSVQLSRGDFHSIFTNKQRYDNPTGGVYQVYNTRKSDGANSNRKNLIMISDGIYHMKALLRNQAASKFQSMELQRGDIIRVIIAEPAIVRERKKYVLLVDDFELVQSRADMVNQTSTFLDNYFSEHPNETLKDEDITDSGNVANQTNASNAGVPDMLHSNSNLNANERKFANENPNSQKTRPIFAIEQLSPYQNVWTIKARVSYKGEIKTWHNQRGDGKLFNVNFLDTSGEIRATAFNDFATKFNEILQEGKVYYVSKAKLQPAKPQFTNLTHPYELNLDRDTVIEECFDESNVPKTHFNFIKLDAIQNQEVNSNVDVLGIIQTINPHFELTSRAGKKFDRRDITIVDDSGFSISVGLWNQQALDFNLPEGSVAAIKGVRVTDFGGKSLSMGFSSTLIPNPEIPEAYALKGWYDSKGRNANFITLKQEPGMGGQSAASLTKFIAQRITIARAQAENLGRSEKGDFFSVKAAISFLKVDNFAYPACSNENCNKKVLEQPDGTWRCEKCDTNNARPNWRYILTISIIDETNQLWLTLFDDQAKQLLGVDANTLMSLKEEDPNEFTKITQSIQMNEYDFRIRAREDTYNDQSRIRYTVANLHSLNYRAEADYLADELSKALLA

Sequence of UniProt P32807 (P32807 whole entry): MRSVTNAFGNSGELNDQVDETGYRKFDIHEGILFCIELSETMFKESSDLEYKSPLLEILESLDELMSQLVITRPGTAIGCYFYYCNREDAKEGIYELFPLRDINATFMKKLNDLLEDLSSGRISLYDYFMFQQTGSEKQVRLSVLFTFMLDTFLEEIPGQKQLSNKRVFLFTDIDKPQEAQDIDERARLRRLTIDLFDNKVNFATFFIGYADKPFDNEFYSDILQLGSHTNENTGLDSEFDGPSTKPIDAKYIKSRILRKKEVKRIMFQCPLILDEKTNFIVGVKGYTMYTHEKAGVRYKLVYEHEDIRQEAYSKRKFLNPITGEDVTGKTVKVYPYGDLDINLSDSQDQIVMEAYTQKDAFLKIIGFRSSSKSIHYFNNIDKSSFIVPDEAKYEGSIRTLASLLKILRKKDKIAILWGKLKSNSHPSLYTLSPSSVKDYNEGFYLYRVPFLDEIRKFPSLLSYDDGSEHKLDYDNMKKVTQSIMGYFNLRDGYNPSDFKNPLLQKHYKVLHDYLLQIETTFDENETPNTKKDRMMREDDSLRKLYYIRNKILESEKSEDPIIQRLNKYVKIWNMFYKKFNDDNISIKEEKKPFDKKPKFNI

Row | Substance | Kd [1] [nM] | Kd [2] [nM]
1 | yeast Y236F^me2 nucleosomes (from UniProt P61830 1-136) (complex) | 1200 | 
2 | native chicken erythrocyte nucleosomes (complex) | 1200 | 1000
3 | yeast Y149F^me3 nucleosomes (from UniProt P61830 1-136) (complex) |  | 1000
